Assay results reported in paper PMC3909184.

Molecular target: CXCR4 (human) (UniProt P61073)
UniProt P61073, sequence (P61073 whole entry): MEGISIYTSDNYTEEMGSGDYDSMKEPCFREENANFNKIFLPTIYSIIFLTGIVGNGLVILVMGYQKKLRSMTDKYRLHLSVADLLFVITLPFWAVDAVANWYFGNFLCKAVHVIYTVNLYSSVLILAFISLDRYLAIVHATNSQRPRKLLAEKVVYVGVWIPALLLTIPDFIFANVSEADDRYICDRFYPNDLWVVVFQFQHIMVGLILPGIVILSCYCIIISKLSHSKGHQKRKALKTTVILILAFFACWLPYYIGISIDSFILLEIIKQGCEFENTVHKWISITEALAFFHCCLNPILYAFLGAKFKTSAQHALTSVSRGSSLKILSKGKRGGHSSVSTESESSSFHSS

WT CXCL12 (from UniProt P48061 22-93) (ligand)
EC50 of Kir3* K+ current activation (TEVC, -50 mV) in Xenopus oocytes co-expressing CXCR4 and Kir3.1* or Kir3.4*; dose-response: 23 nM
